Paper PMC5353646, “Allosteric modulation of peroxisomal membrane protein recognition by farnesylation of the peroxisomal import receptor PEX19” (Nature Communications, 2017)
Residues, ends and D or L forms follow the SMILES beside them. No end group written: not given here. *: point of attachment. FITC = O=C1OC2(c3ccc(O)cc3Oc3cc(O)ccc32)c2ccc(NC(=S)*)cc21; fluorescein = fluorescein label on the N-terminus

Legend:
PEX19 CTD M255R = test: Fluorescence polarization, ALDP peptide binding to PEX19 CTD M255R; design: species or system human; conditions: with or without farnesylation, FITC-labelled ALDP peptide 20 nM, triplicate (n = 3)
Protocol: (§1) ALDP peptide (62-AAKAGMNRVFLQRLL-76) fused N-terminally with fluorescein isothiocyanate (FITC), was purchased from Peptide Specialty Laboratories GmbH. The lyophilized powder was dissolved in 1 ml water resulting in a 5 mM stock solution. Overnight dialysis against buffer containing 50 mM Tris pH 8.0, 50 mM NaCl, removed trifluoroacetate counterions. For the determination of each binding curve a 12 point titration was performed with constant concentration of 20 nM labelled peptide with increasing concentrations of PEX19 CTD variants. Starting concentration of PEX19 CTD was 1 mM with 12 serial dilutions reaching 0.5 μM. Reaction mixtures were then transferred into 96-well Optiplate and measured as triplicates in PerkinElmer EnVision plate reader. […]
(§2) Supplementary Figure 6: ALDP af finity measurement for PEX19 CTD proteins using a fluorescence polarization assay . Polarization plots as a function of protein concentration for the direct titration of PEX19 non-farnesylated (black) and farnesylated (red) forms (wild type and residue spedific mutants) into fluorescein-labeled ALDP peptide. […]
(§3) (also on this page, place not known: assay. affinity Fluorescence polarization (mP) wt wtfarn Fluorescence polarization (mP) M179Rfarn 0.00 1.00 Fluorescence polarization (mP) M255Rfarn 0.00 1.00 Fluorescence polarization (mP) I195Kfarn Kd Kd /uni03BCM)

[1] = target: T1, farnesylated wild type PEX19 CTD (Homo sapiens, UniProt P40855); test: Fluorescence polarization, ALDP peptide binding to farnesylated wild type PEX19 CTD; conditions: ratio farnesylated vs non-farnesylated wild type PEX19 CTD
T1 construct: we studied the human PEX19 CTD (residues 161–299) that includes the native C-terminus; hexahistidine (TEV-cleavable) (cleaved yes); made in house; host or cells: Escherichia coli BL21 (DE3); farnesylated in vitro with recombinant S. cerevisiae farnesyl transferase
T1 sequence (P40855 161-299): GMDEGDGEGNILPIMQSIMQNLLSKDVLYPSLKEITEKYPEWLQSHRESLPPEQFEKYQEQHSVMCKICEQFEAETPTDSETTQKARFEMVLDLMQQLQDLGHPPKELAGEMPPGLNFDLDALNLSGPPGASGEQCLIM
Protocol: as §1, §2
standard deviations for triplicate measurements (n = 3).
as §3

PEX19 CTD I195K = test: Fluorescence polarization, ALDP peptide binding to PEX19 CTD I195K; design: species or system human; conditions: with or without farnesylation, FITC-labelled ALDP peptide 20 nM, triplicate (n = 3)
Protocol: as §1, §2, §3

PEX19 CTD M179R = test: Fluorescence polarization, ALDP peptide binding to PEX19 CTD M179R; design: species or system human; conditions: with or without farnesylation, FITC-labelled ALDP peptide 20 nM, triplicate (n = 3)
Protocol: as §1, §2, §3

[2] = NMR 13C secondary chemical shifts (peptide conformation); assay type: physicochemical; conditions: C-terminally extended version of the ALDP peptide with additional tryptophan (residue 68 to 82)
From the text: Phe71 aromatic ring protons
Residue number Leucine residue
Supplementary Figure 8: Intermolecular NOEs between PEX19 CTD and the ALDP peptide, and secondary structure of the latter. (a) 1H,1H plane of a 3D ω1-filtered, ω2-edited 13C-NOESY-HSQC experiment of farnesylated PEX19 CTD free (black) and bound to the ALDP peptide (red). Methyl and methylene protons of the unlabeled farnesyl group of the PEX19 CTD show NOEs with protons of the isotope-labeled farnesylated PEX19 CTD (black circles). In the presence of also unlabeled ALDP peptide additional intermolecular methyl-methyl and aliphatic-aromatic NOEs are observed (red circles and below). (b) NMR 13C secondary chemical shifts of a C-terminally extended […]
tion. (c) Due to signal overlap, 5 out of 7 spin systems for leucine residues were assigned. Nevertheless, also the leucines residues adopt a helical conformation.
(also on this page, place not known: (Leu75)(Leu76) (Leu81)(Leu82) 5 LeuC Cα- Cβ [p.p.m.] Cα- Cβ [p.p.m.] c ω2 ω1 1H (p.p.m.) ω1 1H (p.p.m.) QDPro273/Pro274 { - - { 5)

[3] = target: FITC-labelled ALDP peptide (62-…-76) (human); test: fluorescence polarisation; 20 nM FITC-ALDP peptide constant, 12-point titration of PEX19 CTD variants from 1 mM to 0.5 uM; 50 mM Tris pH 8.0, 50 mM NaCl; triplicates
[4] = tested on: PEX19-deficient human fibroblasts (ΔPEX19 T); test: Functional complementation of PEX19-deficient fibroblasts (peroxisomal protein import); assay type: cell-based; conditions: full-length PEX19 variants; 72 h after transfection; at least 100 cells in three independent transfections; series of Fig. 3c
From the text: A bicistronic expression plasmid coding for eGFP-PTS1 and non-tagged PEX14 (pMF1220)[43] was kindly provided by Marc Fransen (Leuven, Belgium). pIRES2-HsPEX19-eGFP-PTS1 was constructed by replacing the open reading frame of PEX14 (BglII/SalI) with a DNA-cassette encoding the full-length open reading frame of human PEX19 as derived from BamHI/SalI digestion of pAH05 (ref. [44]). Single point mutations were introduced into the PEX19 sequence by Quickchange XL Site-directed Mutagenesis kit (Stratagene) using primer pairs (Supplementary Table 1). The bicistronic expression vectors coding for PEX19 variants and eGFP-PTS1 were transfected into the human cell-line ΔPEX19 T which was derived from PEX19-deficient Zellweger patient fibroblasts. ΔPEX19 T cells, characterized by a defect in peroxisome biogenesis were routinely authenticated by functional complementation assays as described below and checked for mycoplasma contamination using Venor GeM Advance Mycoplasm Detection Kit (Minerva Biolabs). The efficiency of transfection according to the Amaxa Cell Line Nucleofector Kit R protocol (Lonza Cologne AG) was always around 90%. After 72 h of transfection, cells were subjected to fluorescence and immunofluorescence microscopy using polyclonal antiserum against human PEX14 (ref. [45]) (1:400 diluted) or monoclonal antibodies against human PEX19 (BD Biosciences, MA5-17266 Thermo Scientific; 1:400 diluted). Statistical analysis was carried out from three independent transfections of each pIRES-PEX19-eGFP-PTS1 expression plasmid. Based on the appearance of eGFP-PTS1 fluorescence pattern, about 100 cells of each experiment were visually categorized into three classes, (i) full complementation of peroxisomal import as visualized by punctuate staining pattern, (ii) partial complementation as indicated by diffuse cytosolic staining with few dots, (iii) no complementation resulting in only cytosolic staining. All micrographs were recorded on a Zeiss Axioplan 2 microscope with a Zeiss Plan-Apochromat × 63/1.4 oil objective and an Axiocam MR digital camera, and were processed with AxioVision 4.6 software (Zeiss, Jena, Germany). The steady-state level of PEX19 expression was assessed by immunoblot analysis, using monoclonal mouse antibodies against HsPEX19 (BD Biosciences, MA5-17266; 1:1,000 diluted) (Supplementary Fig. 9).

[5] = tested on: peroxisome biogenesis in cells; conditions: ref Sacksteder et al, Gould J Cell Biol 2000; cited from earlier work
From the text: page 14: remnants (and this is also what can be seen in these figures). To improve clarity and avoid confusion, the authors should correct these mistakes. […] The sentence on page 9 now reads “Cells that are not complemented by functional PEX19 show a cytosolic mislocalization of the peroxisomal marker protein GFP-PTS1 and a diffuse background immunolabelling of the peroxisomal membrane protein PEX14 that is different from the peroxisomal pattern and known to be due to mislocalization to mitochondria (Fig. 5c, ΔPEX19).” Accordingly, the legend of Figure 5 ...

[6] = target: T2, non-farnesylated human PEX19 C-terminal domain (residues 161-299) (human, UniProt P40855 161-299); test: FP
T2 chain: T1 sequence (P40855 161-299)

[7] = target: T3, farnesylated human PEX19 C-terminal domain (residues 161-299) (human, UniProt P40855 161-299, farnesyl group on Cys296 (CaaX box)); test: FP; farnesylated PEX19
T3 chain: T1 sequence (P40855 161-299)

[8] = target: T4, non-farnesylated human PEX19 C-terminal domain (residues 161-299) (human, UniProt P40855 161-299); test: MST; fluorescein-PEX11B peptide (200 nM stock) constant, unlabelled PEX19 CTD serially diluted from 612 uM to 18 nM; 20 mM potassium phosphate pH 6.5, 50 mM NaCl, 20% methanol, 0.1% Tween; three measurements; conditions: both partners purified
T4 construct: Peroxisomal biogenesis factor 19 (PEX19), human, C-terminal domain, residues 161-299 with the native C-terminus and CaaX box; 15N- (or 13C/2H-) labelled for NMR; Expressed from pETM11; also called PEX19 CTD; non-farnesylated PEX19 CTD; source: E. coli BL21 (DE3), purified (Ni-NTA, TEV cleavage, size-exclusion chromatography)
T4 sequence (looked up): T1 sequence (P40855 161-299)

[9] = target: T5, farnesylated human PEX19 C-terminal domain (residues 161-299) (human, UniProt P40855 161-299, farnesyl group on Cys296 (CaaX box)); test: as above; conditions: both partners purified
T5 construct: Peroxisomal biogenesis factor 19 (PEX19), human, C-terminal domain, residues 161-299, farnesylated at Cys296; Virtually complete farnesylation by SDS-PAGE and NMR; Isotope-labelled for NMR; also called farnesylated PEX19 CTD; source: E. coli BL21 (DE3), purified; farnesylated in vitro with S. cerevisiae farnesyl transferase, then Ni-NTA and Superdex 75
T5 sequence (looked up): T1 sequence (P40855 161-299)

CSCC[C@H](NC(=O)CNC(=O)[C@H](C)NC(=O)[C@H](CCCCN)NC(=O)[C@H](C)NC(=O)[C@H](C)NC(=S)Nc1ccc2c(c1)C(=O)OC21c2ccc(O)cc2Oc2cc(O)ccc21)C(=O)N[C@@H](CC(N)=O)C(=O)N[C@@H](CCCNC(=N)N)C(=O)N[C@H](C(=O)N[C@@H](Cc1ccccc1)C(=O)N[C@@H](CC(C)C)C(=O)N[C@@H](CCC(N)=O)C(=O)N[C@@H](CCCNC(=N)N)C(=O)N[C@@H](CC(C)C)C(=O)N[C@@H](CC(C)C)C(=O)O)C(C)C [fluorescein-labeled ALDP peptide] ({FITC}-AAKAGMNRVFLQRLL-OH; C-terminus assumed)
binding to PEX19 CTD M255R (PEX19 CTD M255R): impaired binding | increase in affinity upon farnesylation of wild type PEX19 CTD [1]: seven | binding to PEX19 CTD I195K (PEX19 CTD I195K): impaired binding | binding to PEX19 CTD M179R (PEX19 CTD M179R): impaired binding

C-terminally extended: C-terminally extended version of the ALDP peptide, which harbors an additional tryptophan (residue 68 to 82) (NRVFLQRLLWLLRLL; UniProt P33897 68-82, looked up, fragment)
helical conformation of free peptide [2]: largely helical conforma

farnesylated human PEX19 C-terminal domain (residues 161-299) (from UniProt P40855 161-299) (domain or fragment)
fold increase in affinity over non-farnesylated PEX19 CTD [3]: 7 fold

B1: wild type PEX19: full-length wild type human PEX19 expressed in fibroblasts (protein, UniProt P40855 1-299, looked up)
chain: MAAAEEGCSVGAEADRELEELLESALDDFDKAKPSPAPPSTTTAPDASGPQKRSPGDTAKDALFASQEKFFQELFDSELASQATAEFEKAMKELAEEEPHLVEQFQKLSEAAGRVGSDMTSQQEFTSCLKETLSGLAKNATDLQNSSMSEEELTKAMEGLGMDEGDGEGNILPIMQSIMQNLLSKDVLYPSLKEITEKYPEWLQSHRESLPPEQFEKYQEQHSVMCKICEQFEAETPTDSETTQKARFEMVLDLMQQLQDLGHPPKELAGEMPPGLNFDLDALNLSGPPGASGEQCLIM
modifications: full-length
notes: full-length wild type human PEX19 expressed in fibroblasts
cells showing restored peroxisomal protein transport (functional complementation) [4]: 60% | cells with rescue of peroxisome biogenesis [5]: ~50%

{FITC}-AAKAGMNRVFLQRLL [FITC-labelled ALDP peptide (62-AAKAGMNRVFLQRLL-76)]
Kd [6]: 262 µM | Kd [7]: 36 µM

B2: PEX19/C296A: human PEX19 with a mutation of the farnesylation site (Sacksteder et al) (protein, UniProt P40855 2-296, looked up, variant C296A)
Peroxisomal biogenesis factor …: AAAEEGCSVGAEADRELEELLESALDDFDKAKPSPAPPSTTTAPDASGPQKRSPGDTAKDALFASQEKFFQELFDSELASQATAEFEKAMKELAEEEPHLVEQFQKLSEAAGRVGSDMTSQQEFTSCLKETLSGLAKNATDLQNSSMSEEELTKAMEGLGMDEGDGEGNILPIMQSIMQNLLSKDVLYPSLKEITEKYPEWLQSHRESLPPEQFEKYQEQHSVMCKICEQFEAETPTDSETTQKARFEMVLDLMQQLQDLGHPPKELAGEMPPGLNFDLDALNLSGPPGASGEQA
functional complementation, % of the activity of wild-type PEX19 [5]: ~80%

B3: N-terminally fluorescein-labelled PEX11B peptide (residues 186-200 of human PEX11B) (peptide)
peptide: fluorescein-LALKLRLQVLLLARV
notes: PEX11B, human, residues 186-200; also called PEX11-derived peptide; source: bought: Peptide Specialty Laboratories GmbH, Heidelberg
Kd [8]: 29.8 ± 1.6 µM | Kd [9]: 6.1 ± 0.4 µM
